In experiment [1] the target is prefusion-stabilized RSV F strain A2 (DS-Cav1). The experiment in a line: SPR. A general note: Surface plasmon resonance follows binding to a sensor surface in real time, without labels.
Experiment [2] shares this target. Briefly: SPR. The source holds these as a separate data set.

We go through 1 molecule from PMC5707411 (2017).

B1: 5C4 Fab (Fab, V domains shown)
VH: EVQLQQSGAELVKPGASVKLSCTASGFNIKDTFFHWVKQRPEQGLEWIGRIDPADGHTKYDPKFQGKATITADTSSNTAFLQLSSLTSVDTAVYYCATTITAVVPTPYNAMDYWGQGTSVTVSS
VL: DIVLTQSPASLAVSLGQRTTISCRASESVDSFDNSFIHWYQQKPGQPPKLLIFLASSLESGVPARFSGSGSRTDFTLTIDPVEADDAATYYCQQSNEDPFTFGSGTKLEIK
Take B1: the koff in experiment [1] is 0.00454 s⁻¹. Further, in experiment [2], the Kd was 25.7 nM.

As usually defined, the koff is the first-order rate constant of dissociation. What is called Kd is a measure of binding affinity in units of concentration. The low end stands for tighter binding, the high end for weaker binding.
